Assay results as given in patent US20190192484A1 (UNIVERSITY OF CHICAGO, published 2019).

Target: Vimentin (endogenous, WT fibroblasts) (mouse, UniProt P20152 2-466)
Assay: proximity ligation assay in WT fibroblasts with anti-BAD and anti-Vimentin (FIG. 8F)

Sequence of Vimentin (endogenous, WT fibroblasts) (P20152 2-466 limits assumed): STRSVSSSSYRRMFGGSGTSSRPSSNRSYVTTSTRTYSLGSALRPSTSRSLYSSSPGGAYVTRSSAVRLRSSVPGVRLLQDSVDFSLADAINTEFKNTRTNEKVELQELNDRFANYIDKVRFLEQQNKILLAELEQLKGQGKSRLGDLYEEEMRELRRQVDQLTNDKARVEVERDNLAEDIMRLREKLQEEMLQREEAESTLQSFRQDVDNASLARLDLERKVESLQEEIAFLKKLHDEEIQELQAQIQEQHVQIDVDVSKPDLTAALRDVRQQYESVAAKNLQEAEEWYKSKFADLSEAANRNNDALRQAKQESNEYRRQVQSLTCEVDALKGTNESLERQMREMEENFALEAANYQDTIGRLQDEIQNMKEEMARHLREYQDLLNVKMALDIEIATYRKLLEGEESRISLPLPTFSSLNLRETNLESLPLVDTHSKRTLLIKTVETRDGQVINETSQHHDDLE

B1: BCL-2-associated death promoter (BAD), endogenous in WT fibroblasts (other, mouse, UniProt Q61337 1-204, looked up)
chain: MGTPKQPSLAPAHALGLRKSDPGIRSLGSDAGGRRWRPAAQSMFQIPEFEPSEQEDASATDRGLGPSLTEDQPGPYLAPGLLGSNIHQQGRAATNSHHGGAGAMETRSRHSSYPAGTEEDEGMEEELSPFRGRSRSAPPNLWAAQRYGRELRRMSDEFEGSFKGLPRPKSAGTATQMRQSAGWTRIIQSWWDRNLGKGGSTPSQ
notes: Endogenous protein inside fixed cells (microscopy, proximity ligation assay); also called WT BAD
binding result: no binding
